Test results reported in US7560106B2, “Rationally designed heparinases derived from heparinase I and II and methods of sequencing therewith” (Massachusetts Institute of Technology, priority 1998, dated 2009).
Residue numbers refer to the chain shown, from its start. Names and notes keep the numbering of the source. Where two headings read alike, the source gives them in different places.

T1: heparinase II (Pedobacter heparinus, UniProt C6XZB6)
T1 sequence (C6XZB6 26-772): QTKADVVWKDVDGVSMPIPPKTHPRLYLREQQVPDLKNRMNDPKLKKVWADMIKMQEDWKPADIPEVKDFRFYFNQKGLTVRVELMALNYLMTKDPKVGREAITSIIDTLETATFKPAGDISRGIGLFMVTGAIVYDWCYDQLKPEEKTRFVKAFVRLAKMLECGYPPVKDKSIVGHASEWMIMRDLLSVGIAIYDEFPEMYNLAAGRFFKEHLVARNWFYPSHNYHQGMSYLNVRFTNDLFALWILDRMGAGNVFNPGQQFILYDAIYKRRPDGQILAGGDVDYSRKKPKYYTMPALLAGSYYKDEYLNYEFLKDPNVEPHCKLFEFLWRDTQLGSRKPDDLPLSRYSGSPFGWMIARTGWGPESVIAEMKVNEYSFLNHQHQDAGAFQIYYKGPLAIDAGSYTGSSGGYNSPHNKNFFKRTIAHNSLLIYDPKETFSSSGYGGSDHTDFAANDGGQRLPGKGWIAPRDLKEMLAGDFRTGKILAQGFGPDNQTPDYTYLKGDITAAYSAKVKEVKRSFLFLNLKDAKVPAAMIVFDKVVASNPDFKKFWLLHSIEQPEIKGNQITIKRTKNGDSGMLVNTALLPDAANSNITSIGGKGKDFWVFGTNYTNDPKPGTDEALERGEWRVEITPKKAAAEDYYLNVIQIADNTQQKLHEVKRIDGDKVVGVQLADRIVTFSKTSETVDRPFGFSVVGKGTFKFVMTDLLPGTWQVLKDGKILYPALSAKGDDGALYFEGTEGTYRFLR

B1: N375A: heparinase I CB-2 mutant, asparagine 375 changed to alanine (protein, UniProt Q05819 22-384, looked up, variant N375A)
Heparin lyase I: QQKKSGNIPYRVNVQADSAKQKAIIDNKWVAVGINKPYALQYDDKLRFNGKPSYRFELKAEDNSLEGYAAGETKGRTELSYSYATTNDFKKFPPSVYQNAQKLKTVYHYGKGICEQGSSRSYTFSVYIPSSFPDNATTIFAQWHGAPSRTLVATPEGEIKTLSIEEFLALYDRMIFKKNIAHDKVEKKDKDGKITYVAGKPNGWKVEQGGYPTLAFGFSKGYFYIKANSDRQWLTDKADRNNANPENSEVMKPYSSEYKTSTIAYKMPFAQFPKDCWITFDVAIDWTKYGKEANTILKPGKLDVMMTYTKNKKPQKAHIVNQQEILIGRNDDDGYYFKFGIYRVGNSTVPVTYALSGYSETAR
B2: G378A/Y379A: heparinase I CB-2 double mutant (protein, UniProt Q05819 22-384, looked up, variant G378A Y379A)
Heparin lyase I: B1 Heparin lyase I with A354N, G357A, Y358A
B3: E207A/D210A/D212A: heparinase I CB-1 triple mutant (protein, UniProt Q05819 22-384, looked up, variant E207A D210A D212A)
Heparin lyase I: B1 Heparin lyase I with E186A, D189A, D191A, A354N
B4: -L: wild-type recombinant heparinase I expressed without the putative F. heparinum leader sequence (protein, UniProt Q05819 22-384, looked up)
Heparin lyase I: B1 Heparin lyase I with A354N
modifications: recombinant, without leader sequence

Experiments:
heparinase II [1] = target: T1, heparinase II; assay: DTNB modification and inactivation of heparinase II; assay type: biochemical, Flavobacterium heparinum
Source text: Heparinase II Activity Assay. Native heparinase II from Flavobacterium heparinum, was purified as described previously (Godavarti, R., and Sasisekharan, R (1996c) Biochem. Biophys. Res. Comm. 229, 770-777). The UV 232 nm assay to quantify native heparinase II enzymatic activity was similar to that reported for heparinase I (Bernstein, H., Yang, V. C., Cooney, C. L., Langer, R. (1988) Meth. Enzym. 137, 515-29). Briefly, the course of the reaction is monitored by measuring the increase in absorbance at 232 nm as a function of time under saturating substrate concentrations. With heparin as the substrate, the reaction was carried out at a concentration of 4 mg/ml in 50 mM sodium phosphate buffer, pH 7.3. With 2 mg/ml heparan sulfate, the reaction was measured in 50 mM sodium phosphate buffer, pH 6.9 (Sasisekharan, R., Moses, M. A., Nugent, M. A., Cooney, C. L., Langer, R. (1994) Proc. Natl. Acad. Sci., USA 91, 1524-1528). The temperature for all enzymatic activity measurements was kept constant at 35° C.
DTNB Modification Studies. (A) Inactivation with DTNB. Heparinase II (100 μg/ml) was incubated with DTNB (0.1-0.5 mM). A DTNB stock solution was made by dissolving DTNB in ethanol and an aliquot was added to the reaction mixture (Lundblad, R. L. (1995) Techniques in Protein Modification. pp. 63-91, CRC Press, Boca Raton).
(B) Quantification of DTNB—modified residues of heparinase II. Quantification of DTNB-modified heparinase II residues was determined by difference spectra. At time zero, 2 mM DTNB was added to the sample cuvette containing heparinase II (825 μg/ml) in sodium phosphate buffer, pH 7.0. The change in absorbance at 410 nm was monitored every. 30 seconds for 10 minutes. To account for the decomposition of DTNB in the reaction mixture, a control was also done by monitoring the change in absorbance at 410 nm with only DTNB (2 mM) in 50 mM sodium phosphate buffer, pH 7.0. Heparinase II activity assays were also performed on the reaction mixture. The number of heparinase II cysteine residues modified was determined using ∈=13,600 M cm^−1 (Lundblad, R. L. (1995) Techniques in Protein Modification. pp. 63-91, CRC Press, Boca Raton). A similar experiment was completed after preincubating the enzyme with heparin for 30 minutes.

heparinase II [2] = target: T1, heparinase II; assay: 4-VP, NEM, IAA and IAM inactivation of heparinase II; assay type: biochemical, Flavobacterium heparinum
Experimental: 4-VP, NEM IAA, and AM Inactivation Heparinase II (100 μg/ml) was incubated with varying concentrations of either 4-VP, NEM, IAA or IAM (Lundblad, R. L. (1995) Techniques in Protein Modification. pp. 63-91, CRC Press, Boca Raton). Aqueous stock solutions ([…]) of each reagent was prepared immediately before use. For NEM and 4-VP the concentrations of modifying reagent were varied from 0.2-2 mM. In the case of IAA or IAM, the concentrations of the reagent ranged from 1-10 mM. All reactions were conducted in 50 mM sodium-phosphate buffer, pH 7.0, at room temperature. The time course of inactivation was monitored in each case, time courses for each of the reagents were compared using either heparin or heparan sulfate as the substrate.

[3] = Heparinase I activity as a function of calcium concentration (K0.5, calcium dependence); assay type: biochemical
Summary of the method: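 Heparinase I mutant activity was measured by UV absorbance at 232 nm in 100 mM MOPS, pH 7.0, with calcium varied from 0 to 10 mM. Activity is given as IU (μmol product/min) using ε=−3800 M^−1cm^−1.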

[4] = Fluorescence competition for calcium with probe rhod-5N; conditions: apparent dissociation constant of rhod-5N for calcium with 3 μM enzyme; lower Kd′ means less binding of calcium by heparinase I
Experimental: Fluorescence Competition. To determine the effect of mutations in CB-1 and CB-2 on the ability of heparinase I to bind calcium, mutants with a dramatic drop in activity were tested for their ability to bind calcium. To accomplish this, we examined the ability of heparinase I and mutants to compete for free calcium with the calcium-chelating fluorescence probe rhod-5N. The fluorescence probe rhod-5N was dissolved and diluted in buffer A (10 mM MOPS and 100 mM KCl, pH 6.5). Buffer A and the water used in the study were run through a Chelex Resin column to remove trace amounts of calcium. In the absence of calcium, rhod-5N is not fluorescent, however upon binding calcium rhod-5N is fluorescent with an emission λmax of 576 nm. Before titration, rhod-5N and heparinase I were added to a quartz cuvette such that the final concentration of rhod-5N in the cuvette was 0.3 μM and heparinase I is 3 μM. To this solution was added aliquots of a calcium solution (20 mM) which had been previously equilibrated with 0.3 μM rhod-5N and 3 μM heparinase I. The stock was added such that the calcium concentration in the cuvette was 50, 100, 200, 500, 1000, 5000 μM. After allowing the solution to come to equilibrium, the sample was scanned from 560 nm to 600 nm with the excitation wavelength fixed at […]. The plot of I/Imax versus [Ca^++] was fitted to a non-linear equation to determine the apparent Kd (Kd′) value. Thus, Kd′ values represent the apparent dissociation constants for the fluorescence probe rhod-5N. Control samples without heparinase I were included in the study.

[5] = Heparin-POROS affinity chromatography; assay type: binding; conditions: for NaCl: salt concentration at which enzyme elutes from heparin-POROS column, 10 mM Tris, 1 mM EDTA pH 7.0
Experimental: Heparin-POROS chromatography: About 30-40 μg of -L r-heparinase I and the various mutant enzymes were injected into a heparin POROS (4.6 mm×100) column (PerSeptive BioSystems, Framingham, Mass.) connected to BioCAD system (PerSeptive BioSystems). Proteins were eluted using a linear gradient of […] NaCl in 10 min (10 mM Tris, 1 mM EDTA pH 7.0) and monitored at 210 nm. EDTA was added to chelate any calcium ions that may be present in the buffers.

[6] = Heparinase I UV 232 nm activity assay as a function of heparin concentration (Kcat, Km); assay type: biochemical, porcine; conditions: for Kcat / Km: heparin 0 to 4 mg/ml, 5 mM calcium acetate, pH 7.0; for Kcat: 100 mM MOPS
[7] = 2 mM DTNB, 10 minutes, enzyme preincubated with heparin
[8] = 2 mM DTNB, 10 minutes, without heparin preincubation
[9] = calcium concentration at which half of the maximum enzyme activity was observed, calcium 0 to 10 mM, Table 4 first K0.5 column

| Molecule | inhibition of heparinase II activity, in words (heparinase II [2]) | K0.5 ([3]; Table 4 second K0.5 column) [µM] | K0.5 [3, 9] [µM] | Kd [4] [µM] | NaCl [5] [mM] | Kcat [6] [s⁻¹] | Km [6] [µM] | other results |
| --- | --- | --- | --- | --- | --- | --- | --- | --- |
| O=C(O)c1cc(SSc2ccc([N+](=O)[O-])c(C(=O)O)c2)ccc1[N+](=O)[O-] [DTNB, 5,5′-dithiobis-(2-nitrobenzoic acid)] |  |  |  |  |  |  |  | loss of activity (heparinase II [1]; [7]): 25%; number of cysteines modified (heparinase II [1]; [7]): 1.3 cysteines; loss of initial activity (heparinase II [1]; [8]): 80%; number of cysteines modified (heparinase II [1]; [8]): 2.4 cysteines; kinact/KI (heparinase II [1]; DTNB 0-0.5 mM, read-out: second-order rate constant of inactivation (converted)): 10.2 M⁻¹ s⁻¹ |
| CCN1C(=O)C=CC1=O [NEM, N-ethylmaleimide] | inhibited heparinase II activity in a dose-dependent fashion |  |  |  |  |  |  |  |
| O=C(O)CI [IAA, iodoacetic acid] | least effective |  |  |  |  |  |  |  |
| C=Cc1ccncc1 [4-VP, 4-vinylpyridine] | inhibited heparinase II activity in a dose-dependent fashion |  |  |  |  |  |  |  |
| B1 |  | 60 | 60 | 216 | 490 | 10 | 0.88 | elution salt concentration / heparin binding relative to wild-type r-heparinase I, in words [5]: comparable to wild-type r-heparinase I; decrease in Kcat compared to wild-type r-heparinase I [6]: about 10 fold; decrease in Kcat compared to wild-type r-heparinase I ([6]; listed as N375): more than 9 fold |
| B2 |  | 90 | 90 | 136 | 489 | 9 | 0.31 | elution salt concentration / heparin binding relative to wild-type r-heparinase I, in words [5]: comparable to wild-type r-heparinase I |
| B3 |  | 810 | 810 | 151 | 540 | 25 | 0.73 |  |
| B4 |  | 270 | 270 | 206 | 482 ± 3 | 92 | 3.94 | NaCl ([5]; listed as wild-type r-heparinase I): about 482 mM |
